According to patent publication US20150086562A1:

Target: recombinant CD22 extracellular domain
Test: The sheet does not state the method. The column 'KD (nM)' stands beside the confocal data. The values largely repeat FIGURE 18 (SPR on recombinant CD22 extracellular domain), so the target form is taken from there.

Chain of recombinant CD22 extracellular domain (chain, as listed by the source limits assumed): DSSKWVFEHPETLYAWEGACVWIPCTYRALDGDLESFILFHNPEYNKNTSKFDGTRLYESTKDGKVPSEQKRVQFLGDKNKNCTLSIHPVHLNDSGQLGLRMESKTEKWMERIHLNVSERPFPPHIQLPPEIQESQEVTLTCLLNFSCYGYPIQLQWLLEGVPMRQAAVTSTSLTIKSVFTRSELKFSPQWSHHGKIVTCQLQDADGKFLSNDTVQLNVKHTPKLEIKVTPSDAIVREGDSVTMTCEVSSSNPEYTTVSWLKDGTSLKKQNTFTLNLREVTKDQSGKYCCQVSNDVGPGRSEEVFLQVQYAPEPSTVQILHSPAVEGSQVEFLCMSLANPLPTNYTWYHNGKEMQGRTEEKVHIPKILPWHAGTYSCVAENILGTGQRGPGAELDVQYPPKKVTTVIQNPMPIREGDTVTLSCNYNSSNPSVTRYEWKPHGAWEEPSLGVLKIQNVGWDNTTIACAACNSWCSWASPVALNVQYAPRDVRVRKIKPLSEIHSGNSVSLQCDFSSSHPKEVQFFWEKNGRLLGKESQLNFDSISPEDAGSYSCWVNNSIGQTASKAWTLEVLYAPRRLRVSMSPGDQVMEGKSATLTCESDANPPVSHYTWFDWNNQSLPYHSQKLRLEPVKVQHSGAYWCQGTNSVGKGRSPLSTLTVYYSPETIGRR

Kd: 20 nM
Substance: LL2 (mouse Mab) (antibody)
